From PMC10197177
pKd: −log10 of the molar value.

Assays:
Assay in all cases: ELONA
Conditions in all cases: pH 7.4, room temperature, spike immobilized
[1] = biological target: Spike protein, Beta (SARS-CoV-2 (Beta variant)) (UniProt P0DTC2)
[2] = biological target: Spike protein, Delta (SARS-CoV-2 (Delta variant)) (UniProt P0DTC2)
[3] = biological target: Spike protein, Omicron (SARS-CoV-2 (Omicron variant)) (UniProt P0DTC2)
[4] = biological target: Spike protein, Alpha (SARS-CoV-2 (Alpha variant)) (UniProt P0DTC2)

Sequence | pKd [1] | pKd [2] | pKd [3] | pKd [4]
AATGGATCCACATCTACGAGCTCGAACGCCCGGAGGAGACGGGGGCAGGGCGTGTTCACTGCAGACTTGACGAAGCT [K1 (truncated working aptamer)] | 10.47 | 10.43 | 10.59 | 10.47
ATCTACGAATTCTCCGCCAAGATAGAGGGTGGGCCGCGGAGAATTCACTGC [M40 (truncated working aptamer)] | 9.56 | 9.73 | 9.78 | 9.55
